These results are taken from US20210379110A1 (LENTIGEN TECHNOLOGY, published 2021).

T1: TSLPR-Fc peptide (R&D systems) (UniProt Q9HC73 25-231)
T1 construct: Bought reagent (R&D systems); also called TSLPR-Fc reagent; not shown: Fc part of the bought reagent
T1 sequence (looked up): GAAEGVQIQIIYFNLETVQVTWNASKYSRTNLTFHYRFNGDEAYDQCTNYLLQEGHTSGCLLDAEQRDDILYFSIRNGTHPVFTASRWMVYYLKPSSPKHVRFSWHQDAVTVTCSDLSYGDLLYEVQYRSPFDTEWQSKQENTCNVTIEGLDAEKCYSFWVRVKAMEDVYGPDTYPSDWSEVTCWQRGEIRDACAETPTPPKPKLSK

T2: CD22-Fc peptide (R&D systems) (UniProt P20273 20-687)
T2 construct: Bought reagent (R&D systems); not shown: Fc part of the bought reagent
T2 sequence (looked up): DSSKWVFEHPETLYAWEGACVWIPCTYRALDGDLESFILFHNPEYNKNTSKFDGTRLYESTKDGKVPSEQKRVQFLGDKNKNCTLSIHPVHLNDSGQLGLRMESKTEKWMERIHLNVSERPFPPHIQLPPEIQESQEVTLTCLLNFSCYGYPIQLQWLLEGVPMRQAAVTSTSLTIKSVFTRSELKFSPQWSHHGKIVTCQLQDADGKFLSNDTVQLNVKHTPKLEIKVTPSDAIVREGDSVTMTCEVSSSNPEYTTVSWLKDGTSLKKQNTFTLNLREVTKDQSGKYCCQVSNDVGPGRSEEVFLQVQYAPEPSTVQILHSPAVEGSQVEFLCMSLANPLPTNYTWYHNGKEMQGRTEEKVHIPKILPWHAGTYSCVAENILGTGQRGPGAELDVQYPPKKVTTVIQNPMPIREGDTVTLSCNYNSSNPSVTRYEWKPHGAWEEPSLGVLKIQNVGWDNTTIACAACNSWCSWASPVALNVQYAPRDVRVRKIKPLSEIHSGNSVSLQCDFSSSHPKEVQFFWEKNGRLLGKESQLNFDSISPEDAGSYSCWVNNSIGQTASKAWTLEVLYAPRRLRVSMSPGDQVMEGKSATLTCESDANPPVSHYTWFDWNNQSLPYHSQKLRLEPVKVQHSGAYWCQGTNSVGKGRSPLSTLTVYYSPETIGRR

B1: D0112 (EF-1a-CD22 (m971)-TSLPR CD8 BBz) (other)
chain: QVQLQQSGPGLVKPSQTLSLTCAISGDSVSSNSAAWNWIRQSPSRGLEWLGRTYYRSKWYNDYAVSVKSRITINPDTSKNQFSLQLNSVTPEDTAVYYCAREVTGDLEDAFDIWGQGTMVTVSSGGGGSGGGGSGGGGSDIQMTQSPSSLSASVGDRVTITCRASQTIWSYLNWYQQRPGKAPNLLIYAASSLQSGVPSRFSGRGSGTDFTLTISSLQAEDFATYYCQQSYSIPQTFGQGTKLEIKGGGGSGGGGSGGGGSGGGGSGGGGSQVTLKESGPGILKPSQTLSLTCSFSGFSLSTSGMGVGWIRQPSGKGLEWLAHIWWDDDKYYNPSLKSQLTISKDTSRNQVFLKITSVDTADTATYYCSRRPRGTMDAMDYWGQGTSVTVSSGGGGSGGGGSGGGGSDIVMTQAASSLSASLGDRVTISCRASQDISKYLNWYQQKPDGTVKLLIYYTSRLHSGVPSRFSGSGSGTDYSLTIRNLEQEDIATYFCQQVYTLPWTFGGGTKLEIKAAATTTPAPRPPTPAPTIASQPLSLRPEACRPAAGGAVHTRGLDFACDIYIWAPLAGTCGVLLLSLVITLYCKRGRKKLLYIFKQPFMRPVQTTQEEDGCSCRFPEEEEGGCELRVKFSRSADAPAYQQGQNQLYNELNLGRREEYDVLDKRRGRDPEMGGKPRRKNPQEGLYNELQKDKMAEAYSEIGMKGERRRGKGHDGLYQGLSTATKDTYDALHMQALPPR
notes: Tandem chimeric antigen receptor on human primary T cells: leader, CD22 scFv m971 (membrane-distal), (GGGGS)5, TSLPR scFv 3G11, CD8 hinge/TM, 4-1BB, CD3 zeta; also called CAR 22m971-TSLPR BBz
B2: D0104 (EF-1a-CD22 (16P17)-TSLPR CD8 BBz) (other)
chain: QVQLQQSGPGLVKHSQTLSLTCAISGDSVSSNSAAWNWIRQSPSRGLEWLGRTYYRSKWYNDYAVSVKSRITINPDTSKNQFSLQLNSVTPEDTAVYYCAQEVEPHDAFDIWGQGTMVTVSSGGGGSGGGGSGGGGSDIQMTQSPSSVYASVGDKVTITCRASQDVSGWLAWYQQKPGLAPQLLISGASTLQGEVPSRFSGSGSGTDFTLTISSLQPEDFATYYCQQAKYFPYTFGQGTKLEIKGGGGSGGGGSGGGGSGGGGSGGGGSQVTLKESGPGILKPSQTLSLTCSFSGFSLSTSGMGVGWIRQPSGKGLEWLAHIWWDDDKYYNPSLKSQLTISKDTSRNQVFLKITSVDTADTATYYCSRRPRGTMDAMDYWGQGTSVTVSSGGGGSGGGGSGGGGSDIVMTQAASSLSASLGDRVTISCRASQDISKYLNWYQQKPDGTVKLLIYYTSRLHSGVPSRFSGSGSGTDYSLTIRNLEQEDIATYFCQQVYTLPWTFGGGTKLEIKAAATTTPAPRPPTPAPTIASQPLSLRPEACRPAAGGAVHTRGLDFACDIYIWAPLAGTCGVLLLSLVITLYCKRGRKKLLYIFKQPFMRPVQTTQEEDGCSCRFPEEEEGGCELRVKFSRSADAPAYQQGQNQLYNELNLGRREEYDVLDKRRGRDPEMGGKPRRKNPQEGLYNELQKDKMAEAYSEIGMKGERRRGKGHDGLYQGLSTATKDTYDALHMQALPPR
notes: Tandem chimeric antigen receptor on human primary T cells: leader, CD22 scFv 16P17 (membrane-distal), (GGGGS)5, TSLPR scFv 3G11, CD8 hinge/TM, 4-1BB, CD3 zeta; also called CAR 22-TSLPR BBz; tandem D0104 CD22×TSLPR CAR
B3: D0111 (EF-1a-TSLPR-CD22 (m971) CD8 BBz) (other)
chain: QVTLKESGPGILKPSQTLSLTCSFSGFSLSTSGMGVGWIRQPSGKGLEWLAHIWWDDDKYYNPSLKSQLTISKDTSRNQVFLKITSVDTADTATYYCSRRPRGTMDAMDYWGQGTSVTVSSGGGGSGGGGSGGGGSDIVMTQAASSLSASLGDRVTISCRASQDISKYLNWYQQKPDGTVKLLIYYTSRLHSGVPSRFSGSGSGTDYSLTIRNLEQEDIATYFCQQVYTLPWTFGGGTKLEIKGGGGSGGGGSGGGGSGGGGSGGGGSQVQLQQSGPGLVKPSQTLSLTCAISGDSVSSNSAAWNWIRQSPSRGLEWLGRTYYRSKWYNDYAVSVKSRITINPDTSKNQFSLQLNSVTPEDTAVYYCAREVTGDLEDAFDIWGQGTMVTVSSGGGGSGGGGSGGGGSDIQMTQSPSSLSASVGDRVTITCRASQTIWSYLNWYQQRPGKAPNLLIYAASSLQSGVPSRFSGRGSGTDFTLTISSLQAEDFATYYCQQSYSIPQTFGQGTKLEIKAAATTTPAPRPPTPAPTIASQPLSLRPEACRPAAGGAVHTRGLDFACDIYIWAPLAGTCGVLLLSLVITLYCKRGRKKLLYIFKQPFMRPVQTTQEEDGCSCRFPEEEEGGCELRVKFSRSADAPAYQQGQNQLYNELNLGRREEYDVLDKRRGRDPEMGGKPRRKNPQEGLYNELQKDKMAEAYSEIGMKGERRRGKGHDGLYQGLSTATKDTYDALHMQALPPR
notes: Tandem chimeric antigen receptor on human primary T cells: leader, TSLPR scFv 3G11 (membrane-distal), (GGGGS)5, CD22 scFv m971, CD8 hinge/TM, 4-1BB, CD3 zeta; also called CAR TSLPR-22m971 BBz
B4: D0103 (EF-1a-TSLPR-CD22 (16P17) CD8 BBz) (other)
chain: QVTLKESGPGILKPSQTLSLTCSFSGFSLSTSGMGVGWIRQPSGKGLEWLAHIWWDDDKYYNPSLKSQLTISKDTSRNQVFLKITSVDTADTATYYCSRRPRGTMDAMDYWGQGTSVTVSSGGGGSGGGGSGGGGSDIVMTQAASSLSASLGDRVTISCRASQDISKYLNWYQQKPDGTVKLLIYYTSRLHSGVPSRFSGSGSGTDYSLTIRNLEQEDIATYFCQQVYTLPWTFGGGTKLEIKGGGGSGGGGSGGGGSGGGGSGGGGSQVQLQQSGPGLVKHSQTLSLTCAISGDSVSSNSAAWNWIRQSPSRGLEWLGRTYYRSKWYNDYAVSVKSRITINPDTSKNQFSLQLNSVTPEDTAVYYCAQEVEPHDAFDIWGQGTMVTVSSGGGGSGGGGSGGGGSDIQMTQSPSSVYASVGDKVTITCRASQDVSGWLAWYQQKPGLAPQLLISGASTLQGEVPSRFSGSGSGTDFTLTISSLQPEDFATYYCQQAKYFPYTFGQGTKLEIKAAATTTPAPRPPTPAPTIASQPLSLRPEACRPAAGGAVHTRGLDFACDIYIWAPLAGTCGVLLLSLVITLYCKRGRKKLLYIFKQPFMRPVQTTQEEDGCSCRFPEEEEGGCELRVKFSRSADAPAYQQGQNQLYNELNLGRREEYDVLDKRRGRDPEMGGKPRRKNPQEGLYNELQKDKMAEAYSEIGMKGERRRGKGHDGLYQGLSTATKDTYDALHMQALPPR
notes: Tandem chimeric antigen receptor on human primary T cells: leader, TSLPR scFv 3G11 (membrane-distal), (GGGGS)5, CD22 scFv 16P17, CD8 hinge/TM, 4-1BB, CD3 zeta; also called CAR TSLPR-22 BBz; tandem D0103 TSLPR×CD22 CAR

One assay concerns the target T1, TSLPR-Fc peptide (R&D systems). Description: flow cytometry, CAR T cells stained with TSLPR-Fc then anti-Fc AF647. As for the experimental part:
Flow cytometric analysis was performed to detect the CAR molecule surface expression. Half million of harvested primary T cells were washed and stained with cold AutoMACS buffer supplemented with 0.5% bovine serum albumin (Miltenyi Biotec, Bergisch Gladbach, Germany), and resuspended in 200 ul Running Buffer before acquired by MACSQuant®10 Analyzer (Miltenyi Biotec Bergisch Gladbach, Germany). For CAR surface expression, TSLPR Fc, CD19Fc and CD22Fc peptide (R&D systems, Minneapolis, Minn.) were used followed anti Fc-AF647 (Jackson ImmunoResearch, West Grove, Pa.). T cell subtypes was further identified with anti-CD4 antibody conjugated to VioBlue fluorophore (Miltenyi Biotec Bergisch Gladbach, Germany). Dead cells in all studies were excluded by 7AAD staining (BD Biosciences, San Jose, Calif.). Flow data were analyzed with MACSQuantify software.
Specific detection of each scFv domain within the CAR structure was facilitated by CAR T cell staining with TSLPR-Fc peptide, or CD19-Fc peptide, followed by a secondary staining with anti-Fc AF647-labeled reagent, and fluorescence was detected in the APC channel. In CAR construct D0101, in which CD19 scFv was membrane-proximal and the TSLPR scFv was membrane-distal, the TSLPR scFv was detected at 44% of the transduced cells, and CD19 scFv was detected at 31%. In CAR construct D0102 with the reverse binder orientation (i.e. the TSLPR scFv membrane-proximal, and CD19 scFv membrane-distal), the detection levels were 85% and 75% for scFv TSLPR and CD19, respectively (FIG. 2).
Consider B1, for which the “percent of transduced T cells stained by antigen-Fc” value (shortened to “percent”) amounted to 73%.
With B2, the “percent” value turned out to be 75%.
Same read-out and setting: in the case of B3 it was 34%; in that of B4, 26%.

The target in a further assay is T2, CD22-Fc peptide (R&D systems). Description: flow cytometry, CAR T cells stained with CD22-Fc then anti-Fc AF647. The protocol:
For CAR surface expression, TSLPR Fc, CD19Fc and CD22Fc peptide (R&D systems, Minneapolis, Minn.) were used followed anti Fc-AF647 (Jackson ImmunoResearch, West Grove, Pa.). T cell subtypes was further identified with anti-CD4 antibody conjugated to VioBlue fluorophore (Miltenyi Biotec Bergisch Gladbach, Germany). Dead cells in all studies were excluded by 7AAD staining (BD Biosciences, San Jose, Calif.). Flow data were analyzed with MACSQuantify software.
To develop the tandem CD22 and TSLPR targeting CARs, CD22-directed scFv 16P17 was used in either membrane-proximal or membrane-distal orientation (construct D0103 and D0104, respectively). For TSLPR-targeting, scFv 3G11 was used. Surface expression of the tandem TSLPR×CD22 CAR incorporating the human ScFv 16P17 together with the TSLPR scFv 3G11, when the TSLPR scFv is positioned in the membrane-distal orientation (D0103), or in the membrane-proximal orientation (D0104) is shown in FIG. 5. Specific detection of each scFv domain within the CAR structure was facilitated by CAR T cell staining with TSLPR-Fc peptide, or CD22-Fc peptide, followed by a secondary staining with anti-Fc AF647-labeled reagent, and detected in the APC channel by flow cytometry. In CAR construct D0103, in which CD22 scFv was membrane-proximal and the TSLPR scFv was membrane-distal, the TSLPR scFv was detected at 26% of the transduced cells, and CD22 scFv was detected at 11%. In CAR construct D0104 with the opposite binder orientation (i.e. the CD22 scFv was membrane-distal, and the TSLPR scFv was membrane-proximal), the detection levels were 75% and 39% for scFv TSLPR and CD22, respectively (FIG. 5).
The surface expression of the tandem TSLPR×CD22 CAR incorporating the human ScFv m971 in membrane-proximal orientation (D0111), and in the membrane-distal orientation (D0112) is shown in FIG. 8. Specific detection of each scFv domain within the CAR structure was facilitated by CAR T cell staining with TSLPR-Fc peptide, or CD22-Fc peptide, followed by a secondary staining with anti-Fc AF647-labeled reagent and detection in the APC channel by flow cytometry. In CAR construct D0111, in which CD22 scFv was membrane-proximal and the TSLPR scFv was membrane-distal, the TSLPR scFv was detected at 34% of the transduced cells, and CD22 scFv was detected at 11%.
For B1, the “percent” value is 39%.
Consider B2, for which the “percent” value turned out to be 39%.
The same measure, in the same setting: in the case of B3 it was 11%.
On the same count and under the same terms, in the case of B4 it was 11%.
